First the molecules themselves.
B1: Azoarcus group I ribozyme (parent)
chain: GUGCCUUGCGCCGGGAAACCACGCAAGGGAUGGUGUCAAAUUCGGCGAAACCUAAGCGCCCGCCCGGGCGUAUGGCAACGCCGAGCCAAGCUUCGGCGCCUGCGCCGAUGAAGGUGUAGAGACUAGACGGCACCCACCUAAGGCAAACGCUAUGGUGAAGGCAUAGUCCAGGGAGUGGCGAAAGUCACACAAACCGG

This passage reports reverse-splicing fitness results from the RNAGym collection of RNA variant scans (doi:10.1093/molbev/msab373).

Variants of B1 are the subject of the series. Briefly: reverse-splicing fitness (ratio to wild type); higher = more active; in vitro selection; Mg2+ level not given. A digest of the protocol:
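An in vitro group I ribozyme library with randomized positions was T7-transcribed and gel-purified. In triplicate, 10 pmol RNA in EPPS pH 7.5 was reacted with 50 pmoles of a 30-nt RNA substrate for 1 h at 37 °C across several added MgCl2 levels (1–48 mM), then stopped with EDTA. Products were reverse transcribed from a substrate-complementary primer, PCR-amplified and sequenced (HiSeq 4000). Fitness is a variant's read proportion after selection over that before, normalised to wild type.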
Take GUGCCUUGCGCCGGGAAACCACGCAAGGGAUGGUGUCAAAUUCGGCGAAACCUAAGCGCCCGCCCGGGCGUAUGGCAACGCCGAGCCAAGCUUCGGCGCCUGCGCCGAUGUAGGUGUAGCGACUAGACGGCACCCACCUAAGGCUAACGGUAUGGUGAAGGCAUAGUCGAGGGAGAGGCGAAAGUCACACAAACCGG [A111U A120C A145U C150G C169G U176A]: the reverse-splicing fitness was found to be 0.00683. Under GUGCCUUGCGCCGGGAAACCACGCAAGGGAUGGUGUCAAAUUCGGCGAAACCUAAGCGCCCGCCCGGGCGUAUGGCAACGCGGAGCCAAGCUUCGGCGCCUGCGCCGAUGGAGGUGUAGGGACUAGACGGCACCCACCUAAGGCCAACGUUAUGGUGAAGGCAUAGUCGAGGGAGCGGCGAAAGUCACACAAACCGG [C82G A111G A120G A145C C150U C169G U176C] stands 0.0155; under GUGCCUUGCGCCGGGAAACCACGCAAGGGAUGGUGUCAAAUUCGGCGAAACCUAAGCGCCCGCCCGGGCGUAUGGCAACGCUGAGCCAAGCUUCGGCGCCUGCGCCGAUGGAGGUGUAGCGACUAGACGGCACCCACCUAAGGCAAACGCUAUGGUGAAGGCAUAGUCAAGGGAGUGGCGAAAGUCACACAAACCGG [C82U A111G A120C C169A], 0.00806; under GUGCCUUGCGCCGGGAAACCACGCAAGGGAUGGUGUCAAAUUCGGCGAAACCUAAGCGCCCGCCCGGGCGUAUGGCAACGCAGAGCCAAGCUUCGGCGCCUGCGCCGAUGGAGGUGUAGUGACUAGACGGCACCCACCUAAGGCGAACGCUAUGGUGAAGGCAUAGUCAAGGGAGUGGCGAAAGUCACACAAACCGG [C82A A111G A120U A145G C169A], 0.00307. Take GUGCCUUGCGCCGGGAAACCACGCAAGGGAUGGUGUCAAAUUCGGCGAAACCUAAGCGCCCGCCCGGGCGUAUGGCAACGCCGAGCCAAGCUUCGGCGCCUGCGCCGAUGCAGGUGUAGCGACUAGACGGCACCCACCUAAGGCCAACGAUAUGGUGAAGGCAUAGUCCAGGGAGCGGCGAAAGUCACACAAACCGG [A111C A120C A145C C150A U176C]: the reverse-splicing fitness stood at 0.0293. Under GUGCCUUGCGCCGGGAAACCACGCAAGGGAUGGUGUCAAAUUCGGCGAAACCUAAGCGCCCGCCCGGGCGUAUGGCAACGCAGAGCCAAGCUUCGGCGCCUGCGCCGAUGUAGGUGUAGGGACUAGACGGCACCCACCUAAGGCAAACGCUAUGGUGAAGGCAUAGUCGAGGGAGCGGCGAAAGUCACACAAACCGG [C82A A111U A120G C169G U176C] stands 0.0234; under GUGCCUUGCGCCGGGAAACCACGCAAGGGAUGGUGUCAAAUUCGGCGAAACCUAAGCGCCCGCCCGGGCGUAUGGCAACGCAGAGCCAAGCUUCGGCGCCUGCGCCGAUGCAGGUGUAGUGACUAGACGGCACCCACCUAAGGCGAACGUUAUGGUGAAGGCAUAGUCGAGGGAGUGGCGAAAGUCACACAAACCGG [C82A A111C A120U A145G C150U C169G], 0.0065; under GUGCCUUGCGCCGGGAAACCACGCAAGGGAUGGUGUCAAAUUCGGCGAAACCUAAGCGCCCGCCCGGGCGUAUGGCAACGCCGAGCCAAGCUUCGGCGCCUGCGCCGAUGUAGGUGUAGAGACUAGACGGCACCCACCUAAGGCCAACGGUAUGGUGAAGGCAUAGUCUAGGGAGCGGCGAAAGUCACACAAACCGG [A111U A145C C150G C169U U176C], 0.0128. Next, GUGCCUUGCGCCGGGAAACCACGCAAGGGAUGGUGUCAAAUUCGGCGAAACCUAAGCGCCCGCCCGGGCGUAUGGCAACGCCGAGCCAAGCUUCGGCGCCUGCGCCGAUGGAGGUGUAGUGACUAGACGGCACCCACCUAAGGCAAACGUUAUGGUGAAGGCAUAGUCGAGGGAGAGGCGAAAGUCACACAAACCGG [A111G A120U C150U C169G U176A]: 0.0102.

As for GUGCCUUGCGCCGGGAAACCACGCAAGGGAUGGUGUCAAAUUCGGCGAAACCUAAGCGCCCGCCCGGGCGUAUGGCAACGCCGAGCCAAGCUUCGGCGCCUGCGCCGAUGAAGGUGUAGAGACUAGACGGCACCCACCUAAGGCCAACGUUAUGGUGAAGGCAUAGUCGAGGGAGAGGCGAAAGUCACACAAACCGG [A145C C150U C169G U176A], the reverse-splicing fitness turned out to be 0.0403.

With GUGCCUUGCGCCGGGAAACCACGCAAGGGAUGGUGUCAAAUUCGGCGAAACCUAAGCGCCCGCCCGGGCGUAUGGCAACGCCGAGCCAAGCUUCGGCGCCUGCGCCGAUGCAGGUGUAGGGACUAGACGGCACCCACCUAAGGCGAACGUUAUGGUGAAGGCAUAGUCUAGGGAGGGGCGAAAGUCACACAAACCGG [A111C A120G A145G C150U C169U U176G], the reverse-splicing fitness was found to be 0.00498. Under GUGCCUUGCGCCGGGAAACCACGCAAGGGAUGGUGUCAAAUUCGGCGAAACCUAAGCGCCCGCCCGGGCGUAUGGCAACGCGGAGCCAAGCUUCGGCGCCUGCGCCGAUGUAGGUGUAGUGACUAGACGGCACCCACCUAAGGCUAACGAUAUGGUGAAGGCAUAGUCGAGGGAGUGGCGAAAGUCACACAAACCGG [C82G A111U A120U A145U C150A C169G] stands 0.00289; under GUGCCUUGCGCCGGGAAACCACGCAAGGGAUGGUGUCAAAUUCGGCGAAACCUAAGCGCCCGCCCGGGCGUAUGGCAACGCGGAGCCAAGCUUCGGCGCCUGCGCCGAUGAAGGUGUAGUGACUAGACGGCACCCACCUAAGGCUAACGUUAUGGUGAAGGCAUAGUCCAGGGAGCGGCGAAAGUCACACAAACCGG [C82G A120U A145U C150U U176C], 0.0591. Next, GUGCCUUGCGCCGGGAAACCACGCAAGGGAUGGUGUCAAAUUCGGCGAAACCUAAGCGCCCGCCCGGGCGUAUGGCAACGCGGAGCCAAGCUUCGGCGCCUGCGCCGAUGCAGGUGUAGGGACUAGACGGCACCCACCUAAGGCAAACGGUAUGGUGAAGGCAUAGUCAAGGGAGAGGCGAAAGUCACACAAACCGG [C82G A111C A120G C150G C169A U176A]: 0.00915; GUGCCUUGCGCCGGGAAACCACGCAAGGGAUGGUGUCAAAUUCGGCGAAACCUAAGCGCCCGCCCGGGCGUAUGGCAACGCAGAGCCAAGCUUCGGCGCCUGCGCCGAUGUAGGUGUAGUGACUAGACGGCACCCACCUAAGGCCAACGGUAUGGUGAAGGCAUAGUCUAGGGAGGGGCGAAAGUCACACAAACCGG [C82A A111U A120U A145C C150G C169U U176G]: 0.00301.
